The values that follow come from publication PMC4742998.

In general, stoichiometry N refers to a count of units in the complex or per binding partner.

This test addresses complement component 9 (C9) (human). The test is described as follows: cryo-EM structure; monomeric C9 polymerised in solution by overnight incubation at 1 mg/ml and 37 °C; single-particle cryo-EM of soluble poly-C9, 22-fold symmetry applied during refinement, about 5,000 particles, 8 Å.

In the case of “complement component 9 (C9) (natural protein)”, the stoichiometry N was determined as 22.
